In PMC4823828, “A squalene synthase-like enzyme initiates production of tetraterpenoid hydrocarbons in Botryococcus braunii Race L” (Nature Communications, 2016):

What was measured:
SSL-2 = molecular target: T1, SSL-2 (Botryococcus braunii, UniProt G0Y287); experiment: radioactive TLC assay; format: biochemical; settings: labelled compound (3H), 10 μM; 2 mM NADPH, 20 mM MgCl2, MOPS pH 6.8, 37 °C; product lycopaoctaene (minor)
T1 construct: SSL-2 delta392-465: C-terminal transmembrane domain deleted, N-terminal 6xHis (pET28a), E. coli BL21(DE3), Ni-NTA

BSS (SS from race B) = molecular target: T2, BSS (SS from race B) (Botryococcus braunii, UniProt Q9SDW9); experiment: radioactive TLC assay; format: biochemical; settings: labelled compound (3H), 10 μM, 2 mM NADPH, 20 mM MgCl2, MOPS pH 6.8, 37 °C
T2 construct: BSS delta399-461: C-terminal transmembrane domain deleted, N-terminal 6xHis (pET28a), E. coli BL21(DE3), Ni-NTA

SlSS = molecular target: T3, SlSS (Solanum lycopersicum, UniProt A0A3Q7ETS2); experiment: radioactive TLC assay; format: biochemical; settings: labelled compound (3H), 10 μM, 2 mM NADPH, 20 mM MgCl2, MOPS pH 6.8, 37 °C
T3 construct: gene SQS1; SlSS delta387-411: C-terminal transmembrane domain deleted, N-terminal 6xHis (pET28a), E. coli BL21(DE3), Ni-NTA; NM_001247787 assigned to SlSS by judgement

[1] = molecular target: T4, LOS (lycopaoctaene synthase) (Botryococcus braunii, UniProt A0A142ZC57); experiment: GC-MS of lycopaoctaene product from GGPP; format: biochemical; settings: 20 nM squalestatin; GGPP substrate, NADPH, Mg2+, pH 6.8, 37 °C
T4 construct: LOS delta391-444: C-terminal transmembrane domain deleted from 444-residue protein, N-terminal 6xHis (pET28a), E. coli BL21(DE3), Ni-NTA

LSS (SS from race L) = molecular target: T5, LSS (SS from race L) (Botryococcus braunii, UniProt A0A144YEA5); experiment: GC-MS product assay; radioactive TLC assay; format: biochemical; settings: 10 μM substrate in radioactive assay; 2 mM NADPH, 20 mM MgCl2, MOPS pH 6.8, 37 °C; product squalene
T5 construct: LSS delta399-462: C-terminal transmembrane domain deleted, N-terminal 6xHis (pET28a), E. coli BL21(DE3), Ni-NTA

[2] = substrate: CC(C)=CCC/C(C)=C/CC/C(C)=C/CO[P@@](=O)(O)OP(=O)(O)O; experiment: radioactive steady-state assay, n-hexane extraction, TLC, scintillation counting; format: biochemical, Botryococcus braunii; settings: labelled compound (3H), 2 mM NADPH, 20 mM MgCl2, MOPS pH 6.8, 37 °C, 100 nM enzyme
Text: (§1) radioactive steady-state assay, n-hexane extraction, TLC, scintillation counting on LOS (lycopaoctaene synthase)

[3] = substrate: C/C(=C\COP(=O)(O)OP(=O)(O)O)CCC[C@H](C)CCC[C@H](C)CCCC(C)C; experiment: as above; format: biochemical, Botryococcus braunii; settings: labelled compound (3H), 2 mM NADPH, 20 mM MgCl2, MOPS pH 6.8, 37 °C, 100 nM enzyme
Text: as §1

[4] = substrate: CC(C)=CCC/C(C)=C/CC/C(C)=C/CC/C(C)=C/COP(=O)(O)OP(=O)(O)O; experiment: as above; format: biochemical, Botryococcus braunii; settings: labelled compound (3H), 2 mM NADPH, 20 mM MgCl2, MOPS pH 6.8, 37 °C, 100 nM enzyme
Text: as §1

T3 sequence (A0A3Q7ETS2 entry or part of it): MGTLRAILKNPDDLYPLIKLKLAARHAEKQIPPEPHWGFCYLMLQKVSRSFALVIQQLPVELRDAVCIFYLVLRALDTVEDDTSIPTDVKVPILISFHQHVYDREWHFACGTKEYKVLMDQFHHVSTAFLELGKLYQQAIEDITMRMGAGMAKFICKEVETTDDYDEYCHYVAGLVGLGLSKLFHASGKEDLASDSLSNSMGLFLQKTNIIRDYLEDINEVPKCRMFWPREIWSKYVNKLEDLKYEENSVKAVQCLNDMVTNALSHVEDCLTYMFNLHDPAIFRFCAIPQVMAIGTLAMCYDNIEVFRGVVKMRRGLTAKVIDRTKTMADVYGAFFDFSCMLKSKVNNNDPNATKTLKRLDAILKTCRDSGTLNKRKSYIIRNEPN
T2 sequence (Q9SDW9 1-398): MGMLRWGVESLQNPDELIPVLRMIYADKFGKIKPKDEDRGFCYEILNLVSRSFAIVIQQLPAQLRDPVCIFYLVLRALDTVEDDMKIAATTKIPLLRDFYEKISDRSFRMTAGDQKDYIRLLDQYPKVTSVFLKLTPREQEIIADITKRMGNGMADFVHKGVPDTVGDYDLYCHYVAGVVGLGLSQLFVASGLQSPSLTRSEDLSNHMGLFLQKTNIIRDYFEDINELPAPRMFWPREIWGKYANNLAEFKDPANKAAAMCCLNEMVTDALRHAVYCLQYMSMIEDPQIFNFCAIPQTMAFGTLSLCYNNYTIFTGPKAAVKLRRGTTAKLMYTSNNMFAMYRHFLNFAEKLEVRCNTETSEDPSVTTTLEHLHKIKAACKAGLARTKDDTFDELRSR
T5 sequence (A0A144YEA5 1-398): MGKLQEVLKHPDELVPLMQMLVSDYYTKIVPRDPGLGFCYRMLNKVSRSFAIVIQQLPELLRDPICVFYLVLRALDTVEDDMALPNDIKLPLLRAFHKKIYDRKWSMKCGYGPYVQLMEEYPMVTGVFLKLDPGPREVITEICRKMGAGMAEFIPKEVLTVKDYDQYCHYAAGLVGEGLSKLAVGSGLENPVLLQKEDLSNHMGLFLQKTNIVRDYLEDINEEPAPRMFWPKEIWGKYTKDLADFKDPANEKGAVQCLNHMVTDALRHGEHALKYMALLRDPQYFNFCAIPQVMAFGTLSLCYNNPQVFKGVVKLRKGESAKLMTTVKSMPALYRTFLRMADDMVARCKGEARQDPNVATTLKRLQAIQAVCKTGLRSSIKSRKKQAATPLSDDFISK
T1 sequence (G0Y287 1-391): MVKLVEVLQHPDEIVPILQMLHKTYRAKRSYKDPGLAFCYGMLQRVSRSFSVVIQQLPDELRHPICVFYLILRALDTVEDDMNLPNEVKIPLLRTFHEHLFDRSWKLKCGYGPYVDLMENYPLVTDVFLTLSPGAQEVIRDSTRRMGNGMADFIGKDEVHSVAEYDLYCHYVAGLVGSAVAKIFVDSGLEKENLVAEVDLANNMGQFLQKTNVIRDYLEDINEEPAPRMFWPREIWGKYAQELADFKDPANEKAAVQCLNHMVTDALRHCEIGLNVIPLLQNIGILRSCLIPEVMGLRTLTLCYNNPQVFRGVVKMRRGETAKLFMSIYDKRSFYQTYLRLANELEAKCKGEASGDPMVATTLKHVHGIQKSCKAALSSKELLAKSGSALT

Molecule: CC(C)=CCC/C(C)=C/CC/C(C)=C/CC/C(C)=C/COP(=O)(O)OP(=O)(O)O [GGPP]
- radioactive TLC assay (SSL-2): allowing SSL-2 and SSL-1 plus SSL-2 to use GGPP to generate minor amounts of lycopaoctaene

Molecule: C/C(=C\COP(=O)(O)OP(=O)(O)O)CCC[C@H](C)CCC[C@H](C)CCCC(C)C [PPP]
- radioactive TLC assay (BSS (SS from race B); product lycopadiene (minute)): BSS and SlSS also using PPP to produce minute amounts of lycopadiene
- radioactive TLC assay (SlSS; product lycopadiene (minute)): BSS and SlSS also using PPP to produce minute amounts of lycopadiene

Molecule: C=C(CC[C@]12O[C@H](C(=O)O)[C@@](O)(C(=O)O)[C@](C(=O)O)(O1)[C@H](OC(=O)/C=C/[C@@H](C)C[C@@H](C)CC)[C@H]2O)[C@@H](OC(C)=O)[C@H](C)Cc1ccccc1 [squalestatin]
- strong inhibition at 20 nM [1]: LOS is strongly inhibited by squalestatin (Fig. 5c), a potent SS inhibitor

Molecule: CC(C)=CCC/C(C)=C/CC/C(C)=C/COP(=O)(O)OP(=O)(O)O [FPP]
- radioactive TLC assay (BSS (SS from race B); product squalene): the typical SS enzymes display SS activity as their main catalytic function
- radioactive TLC assay (SlSS; product squalene): the typical SS enzymes display SS activity as their main catalytic function
- GC-MS product assay; radioactive TLC assay (LSS (SS from race L)): LSS was shown to yield squalene as its sole product in an in vitro assay

B1: LOS (lycopaoctaene synthase) (Botryococcus braunii) (protein)
chain: MKYTDFLAHPDEIIPTIRMMYADYRLKNMEIKDPSVRFCYNMLNRVSRSFAMVIQQLPVELRDATCVFYLILRALDTVEDDMAIPKEVKIPMLRTFHEHLSDRSWKIKCGYGPYVDLMDNYPLVTDVYLRFDEGTKAVIKDITRRMGNGMADFIDLDEVLTIPQYDLYCHYVAGLCGIGMCKLFVDSGLEKEDLVAEEDLANQMGLFLQKNNIVRDYLEDINELPAPRMFWPKEIWGNYAKQLDEFKDPKNLDKAMLCLNHMVTDALRHCEVGLRSLSLLHNPNILRAVLIPQVMGVRTLTLVYNNPEVFRGVVKMRRGETAKIFVTTTSKLSFFRTYLQFANEMEQKCLTEAKNDPMVALTLKRVQGVQAACRAAIVKAEIAEGAKGPS
notes: LOS delta391-444: C-terminal transmembrane domain deleted from 444-residue protein, N-terminal 6xHis (pET28a), E. coli BL21(DE3), Ni-NTA
- Km [2]: 130 ± 20 µM
- kcat [2]: 0.0205 s⁻¹
- kcat/Km [2]: 162 M⁻¹ s⁻¹
- Km [3]: 110 ± 10 µM
- kcat [3]: 0.00116 s⁻¹
- kcat/Km [3]: 10.3 M⁻¹ s⁻¹
- Km [4]: 70 ± 20 µM
- kcat [4]: 0.0114 s⁻¹
- kcat/Km [4]: 165 M⁻¹ s⁻¹
